{"source": "the DeepSol protein solubility set", "data": [{"assay": "soluble on expression in E. coli; label from the status in PepcDB or PDB records", "values": [{"sequence": "QRVKRLLSITNDKHDEYLTEMVPLLVEFAKDECHNPFIDKDGNESIPSGVLIFVAKAAQFYMTNAGLTGRSMDTVSYNFATEIPSTILKKLNPYRKMAR", "soluble on expression in E. coli": "soluble"}, {"sequence": "GMREDMKDNVVKDKSLEFAVRIVNLYKFLVNEQKEFVMSKQILRSGTSIGANIREAEQAQSRADFINKLNIALKEANETEYWLELLIRTEYITREQYESINNDSTEINKLLISIIKTTKNN", "soluble on expression in E. coli": "soluble"}, {"sequence": "MGSDKIHHHHHHMNQQTAAAQSTGVQAGTESSLLDEIVEKSKVAKSESEHARAKDLIGELVSQVLDGTVVVSDNLSATIDARVAELDRLISSQLSAVMHAAEFQRLESTWRGLDYLVKESNTGSTIKIKALHAPKRDLVRDFKNATEFDQSALFKKVYEEEFGTFGGSPFGVLVGDYEISRQPEDQYFIEQMSHVAAAAHAPFIASAAPELLGLESFADLGKPRDLGKVFDTVEYAKWKSFRDSEDSRYVGLTLPRFLGRLPFNPKDGAIAESFNFVEDVDGTDHDKYLWCNASWAFAARLTAAFDDFGWCAAIRGVEGGGLVEDLPTHTFKTDDGEIALKCPTEIAITDRREKELSDLGFIPLVHCKNSDYAAFFAAQSVQKPKKYSTDSANANAVLSAQLQYIFSVSRIAHYLKAMMRDKIGSFASAQNVETFLNRWISQYVLLDDDATQEQKAQFPLREASVQVSEIPGKPGAYRSVAFLRPHFQLDELSISLRLVADLPKPANS", "soluble on expression in E. coli": "not soluble"}, {"sequence": "MKNASVITVGNEILKGRTVNTNAAFIGNFLTYHGYQVRRGFVVMDDLDEIGWAFRVALEVSDLVVSSGGLGPTFDDMTVEGFAKCIGQDLRIDEDALAMIKKKYGQADLTPQRLKMAKIPPSCRPIENPVGTAPGLICAVGGKKVIILPGVPKEMEALLKAMEKDIIIPDTHYYDDSVIIADVMESAFAPYVDRIMKEFDGIYVKSHPRNVEVKNPELEIEISGFGEDEAALRKKIEDAIARAGEYAVKLGGSVKR", "soluble on expression in E. coli": "not soluble"}, {"sequence": "GLNPPSAFSGAALACLEKMQASGVEEKCIHIFLIQHALVRKGETGYIPEKSISPVESLPFLQGIETKGENTALLRQAVVLKLNGGLGTGMGLNGPKSLLQVKNGQTFLDFTALQLEHFRQVRNCNVPFMLMNSFSTSGETKNFLRKYPTLYEVFDSDIELMQNRVPKIRQDNFFPVTYEADPTCEWVPPGHGDVYTVLYSSGKLDYLLGKGYRYMFISNGDNLGATLDVRLLDYMHEKQLGFLMEVCRRTESDKKGGHLAYKDVIDETTGQTRRRFVLRESAQCPKEDEDSFQNIAKHCFFNTNNIWINLMELKKMMDEQLGVLRLPVMRNPKTVNPQDSQSTKVYQLEVAMGAAISLFDRSEAVVVPRERFAPVKTCSDLLALRSDAYQVTEDQRLVLCEERNGKPPAIDLDGEHYKMIDGFEKLVKGGVPSLRQCTSLTVRGLVEFGADVSVRGNVVIKNLKEEPLIIGSGRVLDNEVVVVE", "soluble on expression in E. coli": "soluble"}, {"sequence": "MGSDKIHHHHHHMHVSLDTMVDTLKAAAESSRLRILALLSRGDLTVSDLTEILGQSQPRVSRHLKLLLEAGLIDRYQEGSWAFFRLSDADSARDFVMGLVSSIRGADPQVERDLERLASVKRKRQDRAAEYFSVNAASWDHIRSLHVPDRAVEAAMLKLVGKRPFQSMLDLGTGTGRLLEIFSPLYRRGVGIDMSREMLTVARANLDKAGVSNAQVRQGDIFSPPVERDAFDLVTIHQVLHYLDDPARAIHEAARLLRPSGRLVIVDFAPHTLEFLREEHAHMRLGFSDRQIGEWFAEAGLDLEDAQEFEPRGGSEPRLTVKLWLGRDRRLLIADPANDSQQTKVNSIGEIA", "soluble on expression in E. coli": "not soluble"}, {"sequence": "GSPGISGGGGGIPSGRGELLVSLCYQSTTNTLTVVVLKARHLPKSDVSGLSDPYVKVNLYHAKKRISKKKTHVKKCTPNAVFNELFVFDIPCESLEEISVEFLVLDSERGSRNEVIGRLVLGATAEGSGGGHWKEICDFPRRQIAKWHMLCDG", "soluble on expression in E. coli": "soluble"}, {"sequence": "MNPTNYDPRIGQPAQSRPQVSLSMGRRIVQMPTGLPRSYQDESHNEPVGWDEPSGVGGSSGAGGQQSDKPTGLRHFSTKVCEKVKEKGLTNYNEVADELVADYFQNNLIKQIDVVKQEYDMKNIRRRVYDALNVLLAMNIITKSKKDIRWIGLPASASQEISRLEEEKSRREASISSKKQALEEMVLQIVSYKNLVERNRKNEHKNGRPENDTVLHLPFLIINTDKEANVECSVSSDKSEFLFSFDKKFEIHDDFEILKKLNLACSLETTNPTAEEVKTAKSFLPTLHQHYVDEIIANRKKVEAEKEEKRKQQQLIADQMSMNLSQAQYVEPTSSLAQMSYSSRFNRQLQEHLINDGSEDRSAAAGIMERDYDMDKNVNQGSASRGPMYNTYSPQKIRAQVNTPLQVPPVTKRYYVQKTQGPMKHDMTPVVRTVNRPYSTVPPDRRLSTGATSVNSGPVKYYVPQGHQPMHQPVGQRYRVRPQQPQMSHMGQPHQVQQRVVYPAGSISGHQLQPGQRIVTQRIVAPGGPHPPGTIVRKVIRKIVVNNPKQSPAQQVIQKKMMEQDMCTFERKTEQPMTSAQAAALIQHPQPEEYDYFQ", "soluble on expression in E. coli": "not soluble"}, {"sequence": "MLMIKGIIFDMDGVLFDTEPFYLRRREDFFKTKGIPIDHLNSKDFIGGNLQELWKELLGKNRDDAIVKAITTDYDAYKQAHKPPYQKLLITEVNSCLEQLEKQGIKLAVASNSKRQDVLLALETTQIKDYFEIILAREDVSRGKPYPDIYNKAVQKLGLQKKQLLVVEDSQKGIAAAKAANLTVFAITDYRYGIDQSQADHKIDHLGQLCVKIGCFGS", "soluble on expression in E. coli": "not soluble"}, {"sequence": "MDVRQSIHSEHAKTLDTQALRREFLIENIFVADEYTMVYSHIDRIIVGGIMPVSHPVEIGGEVGKQLGVSRLLDRRELGVINIGGAGAIIVDGQRHDIGHRDALYIGKGAKELVFVSNEASRPAKFYYNCAPAHTAYPTKKVSPADVAPVTLGDNLTSNRRTINKYFVPDVLETCQLSMGLTELAPGNLWNTMPCHTHERRMEVYLYFNMEEDSCVFHMMGQPQETRHIVMRNEQAVISPSWSIHSGVGTKAYTFVWGMVGENQVFDDMDHVAVQDLR", "soluble on expression in E. coli": "not soluble"}, {"sequence": "MQLQPFSQACENNKVPILAVLKSAFANTTRVLEIGSGTGQHAVYFATNLPQLFWQTSDQAEYLEGIKARCLLQGHQLGINNLGFPITLDVTAPWPVNGTHIDAVFSANTLHIMSKSMVEAFFNGLGEYLPQLNTLCIYGPFNYQGHYTSDSNRQFDHFLKQRDSESGIRDIEWIIALAQAQGLTLVEDIAMPTNNRLLHFKHLLALEHHHHHH", "soluble on expression in E. coli": "not soluble"}, {"sequence": "MMRSLLSHPQPSHAIRSPAAACALALFLSGCQSLGTDGLTASNAPAEISGPAASAIAGDMVGRLAEQIGPGTATVSLKQDNSPFGQALEAALKGWGYAVVTDQKTDGVSRIVPLAYVVIPFEGQVLTRLSTNSIELGRAYIVTTSGAQPASALAVMKRGLEHHHHHH", "soluble on expression in E. coli": "not soluble"}, {"sequence": "MAHPQEIREKLRRLYVSGEQTLETAALMCEIPQTTARAWKRADKEKGDDWDKMRAAYTLAGGGIEDLSRAMLAGFMVQYNSTMTMLQDSSTEDLPPSDRAKLLASLADAFTKTVSANARVMPETSKLATALELIEFLMAFVQEKHPKHLPAFVEVLEPFGVEVEKKFG", "soluble on expression in E. coli": "not soluble"}, {"sequence": "MGSDKIHHHHHHMELVYKITYHRIQAHYLPKLVQAVQFVSEENLWKQGESVNSIGGIVLHICEHMQRNTSRYKNPNIVFEKGIEEYFPTKRQHTEVLLQYVEKVFDEWGKAYIQAWEEKRHIELHSLLHLVEHTSYHLGQIVDRTKLIKGQQFNFCQNGINEKNLRTRVETSKF", "soluble on expression in E. coli": "not soluble"}, {"sequence": "MGSDKIHHHHHHMDIREKKTPPTLAPGQTSNPATSLPPRTVEGLRDLVVSIGRDQAEVKLGAKALTVLAHLVERPEEVAVRTITDLANSLDVNASTLTRLATRLGFEGFAEFQGVFRNSMAQRHRHFYSQQAERLVGADNTGMPGGVSPEVGAVVQLAHESIQNVERFVARLSAEELRGAAELLAEAPRVRVHGLRQFSALASFLCYGLSMIRSDVGLLDAHGLGVAEGLAQLQRGDVVVVMSVAPYTRSVAEAAAAAAESGLTVIAITDTSASPLAAAARHAFFIPHESSFFSNSMGAYLIFCEGLLNLAATKLGKRSLRALARREQMIAALDIETE", "soluble on expression in E. coli": "not soluble"}, {"sequence": "MGSDKIHHHHHHMENLKTYFYTEDGVVKAVDGVSFEVREGETLGIVGESGSGKSVTSLSIMRLLDQNGKIVDGKIIFKGRNLLELSENEMRKIRGKEIAMIFQEPMVALNPVFTIGDQIMEAIILHQNVSEKEARKMAIDLLRKVGIPEPEKRVDEYPHQLSGGMRQRAMIAMALSCRPSLLIADEPTTALDVTIQAQILELMKELQKEYGMAIILITHDMGVVAEMSDKVAVMYAGKVVEYGDVKTIFTEPKHPYTYALLESIPRIDVEQERLKSIPGNVPDPLNFPPGCKFHPRCEFFEKGKCDVEEPELEDLDGNHKVRCFFWQKLDEMRHAKSEV", "soluble on expression in E. coli": "not soluble"}, {"sequence": "SNAMWKRMTAKAEGLYIADTKSFVTKQMDKLDFDYGGIPGDLHFGLTKKAGAREPMFSRGTEIFNRRQISIVSIEECNEIALKMGVPRILPEWLGANVAVSGMPDLTSLKEGSRIIFPSGAALLCEGENDPCIQPGEVIQSYYPDQPKLASAFVRHALGIRGIVCIVERPGAVYTGDEIEVHSYQRKVKRKAERV", "soluble on expression in E. coli": "soluble"}, {"sequence": "MKRKTIDIITLGCSKNLVDSEQLMRQLEEAGYDVTHDSEKPTGEIAVINTCGFIGDAKEESINMILEFAQEKEEGNLEKLFVMGCLSERYLKELAIEIPQVDKFYGKFNWKGLLQDLGKAYHEELHIERTLTTPKHYAYLKISEGCDRKCSYCAIPIITGRHVSRPIEEILDEVRYLVSNGVKEFQVIAQELTYYGVDLYKKQMLPELIERISEIPGVEWIRLHYAYPAHFPEELFRVMRERDNVCKYMDIALQHISDNMLQRMRRHVTKKETYRLIEQFRKEVPGIHLRTTLMVGHPGETEGDFEELKEFVRKVRFDRMGAFTYSEEEGTYAAANYEDSIPQELKQARLDELMAIQQGISTELSASKVGQKMKVIIDRIEGEYYIGRTEFDSPEVDPEVLIRCEGDNLMIGNFYQVQVIDSDEFDLFGEIILEHHHHHH", "soluble on expression in E. coli": "soluble"}, {"sequence": "QMNYEEVIKKYRGEENFDHAAYDWRLHSGVTPVKDQKNCGSCWAFSSIGSVESQYAIRKNKLITLSEQELVDCSFKNYGCNGGLINNAFEDMIELGGICPDGDYPYVSDAPNLCNIDRCTEKYGIKNYLSVPDNKLKEALRFLGPISISVAVSDDFAFYKEGIFDGECGDQLNHAVMLVGFGMKEIVNPLTKKGEKHYYYIIKNSWGQQWGERGFINIETDESGLMRKCGLGTDAFIPLIE", "soluble on expression in E. coli": "soluble"}, {"sequence": "MSQIIIKTPQEIEKMRVAGRLAAEVLEMITPFVKEGVTTAELDKICHEYIVKEQDAYPAPLNYHGFPKSICASINHVVCHGIPADKKLKNGDILNIDITVKKDGYHGDTSKMFMIGEPSVMAKKLVEVTHECLWKGIEVVKPGNHFGDIGAAIEKHAKKFGYSIVDAFCGHGIGANFHEPPHVMHHGKAGTGAMFEEGMIFTIEPMINIGKRAVSVLKDGWTAVTKDRSLSAQWEHTILVTKDGYEVLTLREEEKN", "soluble on expression in E. coli": "not soluble"}, {"sequence": "MGSDKIHHHHHHMSSDVRKALDPGTPYSRTLKQYSIDEKLAIISHAKNHGNRAAGREFNVAESSIREWRKNENKLIHNRDAAAARLNAQSSHSSGPARLNNMNNNNNNNHNHSKNNNIQYTQTVFPRRTPDDIVKHIQIAQITQLAMMKMDFTSLARIAPFLQAHQHQQQAQAKPDSISTASSVVGTPSSISSSSSTPPPSTSPVPTSSGSGRRKPRCPMKIVVAESNNPVNIEEIQENIDE", "soluble on expression in E. coli": "not soluble"}, {"sequence": "MGSDKIHHHHHHMKKGIQLVALLLTVVMSSCTGGKDKAAVKQEDEKPRVKVADVTARPVDQIQDYTATVEAEVKNNIAPSSPVRIDRILVEVGDRVSKGQKLVQMDAANLTQTKLQLDNQKIEFNRIDELYKVGGASKSEWDAAKMQLDVKQTAYDNLVENTFLLSPINGVITARNYDNGDMYSGGSPVLVVEQITPVKLMINVSETYFTKVKKGEPVDVKLDVYGDELFKGTISLIYPTIDATTRTFQIEIKLDNKDQRVRPGMFARATLNFGTADNVVVPDLAIVKQAGSGDRYVYVYKDGKVSYNKVELGRRMGSEYELKSGVPDNSQVVVAGQARLINGTEVEIEK", "soluble on expression in E. coli": "not soluble"}]}]}
